From patent US20100285597A1, “DETECTION OF FRAGMENTS OF NECTIN-1 FOR THE DIAGNOSIS OF ALZHEIMER'S DISEASE” (UNIVERSITY OF ROCHESTER, priority 2007, published 2010)

Columns and labels:
BACE1 [1] = target: T1, BACE1 (Homo sapiens, UniProt P56817); assay: Co-immunoprecipitation of nectin-1 point mutants with BACE1 co-expressed in HEK 293 cells; assay type: binding; settings: 48 hr. after transfection
T1 construct: expressed in transfected cells; host or cells: HEK 293
Experimental: To express how these point mutations affect the association of nectin-1 with BACE1, physical association of the mutants was examined by immunoprecipitation. We co-expressed BACE1 and nectin-1 or one of the cleavage refractory point mutants in HEK 293 cells. Cells were harvested and lysed in lysis buffer 48 hr. after transfection. To confirm the co-transfection efficiency of nectin-1 or it derivatives and BACE1, equal volumes of cell lysates were analyzed by 10% SDS-PAGE followed by Western blotting. Transfection efficiencies for nectin-1 and derivatives and BACE1 were similar in each sample (FIG. 12A—nectin-1, FIG. 12B—BACE1). Co-expression of nectin-1 with BACE1 increased the amount of CTF bands compared to nectin-1 alone (FIG. 12A, lanes 3 and 4).
Immunoprecipitation was performed using a C-terminal specific nectin-1 antibody. […] The intensities of nectin-1 CTF bands were much stronger when nectin-1 was co-expressed with BACE1. BACE1 was also detected in nectin-1 complexes (FIG. 12D).

[2] = system: processing of wild type nectin-1; assay: Co-transfection of nectin-1 mutants with wild-type nectin-1 in HEK 293 cells, Western blot of CTF bands; assay type: cell-based; settings: 0.5 μg wild-type nectin-1 plasmid, 24 hr. post-transfection
Experimental: Mutants T310A and Y311A were tested to see if they would interfere with the processing of wild type nectin-1. HEK 293 cells were co-transfected with 0.5 μg of a plasmid containing wild-type nectin-1 and with a plasmid containing no insert (control), green fluorescent protein (GFP), nectin-1 T310A or nectin-1 Y311A. Co transfection efficiency was approximately 85%. Cells were harvested 24 hr. post-transfection and samples were analyzed on a 12% SDS-PAGE gel. […] Co-transfection with vector alone or GFP had no effect on nectin-1 processing. […] The residual CTF bands detected in the T310A and Y311A samples are likely due to the 15% of the cell population that received only the wild type nectin-1 construct.

BACE1 [3] = target: T1, BACE1; assay: Co-immunoprecipitation of nectin-1 truncation mutants with BACE1 co-expressed in HEK 293 cells; assay type: binding; settings: 48 hr. after transfection
Experimental: To define the minimal region within the ectodomain of nectin-1 required for BACE1 interaction, immunoprecipitations between the nectin-1 truncation mutants and BACE1 were performed. BACE1 and full length or truncated nectin-1 were co-expressed in HEK 293 cells and harvested 48 hr. after transfection. To confirm to the efficiencies of the co-transfections, equal volumes of cell lysate were loaded on SDS-PAGE gels and analyzed by Western blot. Transfection efficiency was similar for nectin-1 and its derivates (FIG. 10A) and BACE1 (FIG. 10B). Immunoprecipitation was performed with a nectin-1 cytoplasmic specific antibody and precipitates were analyzed on two separate 10% SDS-PAGE. Western blots were probed with anti-nectin-1 (FIG. 10C) or anti-BACE1 (FIG. 10D) antibodies. The nectin-1 antibody directly immunoprecipitated the respective nectin-1 polypeptides and processed CTFs (FIG. 10C). Furthermore, BACE1, both monomer and dimer, was immunoprecipitated by the nectin-1 antibody, confirming the association of BACE1 with nectin-1.

T1 sequence (P56817 46-501, species assumed): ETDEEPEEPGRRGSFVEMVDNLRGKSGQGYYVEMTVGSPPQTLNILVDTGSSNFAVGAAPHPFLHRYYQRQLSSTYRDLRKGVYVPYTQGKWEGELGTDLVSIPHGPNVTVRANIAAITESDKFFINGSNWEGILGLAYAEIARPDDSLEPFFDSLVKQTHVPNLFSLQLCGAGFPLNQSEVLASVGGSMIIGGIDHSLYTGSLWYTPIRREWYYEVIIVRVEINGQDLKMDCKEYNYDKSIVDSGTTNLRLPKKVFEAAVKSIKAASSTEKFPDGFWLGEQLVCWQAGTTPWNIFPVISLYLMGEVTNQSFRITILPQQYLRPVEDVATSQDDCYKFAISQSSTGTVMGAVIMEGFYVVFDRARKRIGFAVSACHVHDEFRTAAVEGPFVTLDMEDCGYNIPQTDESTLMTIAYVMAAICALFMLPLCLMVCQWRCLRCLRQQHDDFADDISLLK

Molecule | intensity of BACE1 bands co-precipitated, compared with wild type nectin-1 (BACE1 [1]) | production of CTF bands of co-transfected wild type nectin-1 [2] | association with BACE1 (co-immunoprecipitation with nectin-1 antibody) (BACE1 [3])
T310A: T310A point mutant of nectin-1 (protein, listed as Homo sapiens) MARMGLAGAAGRWWGLALGLTAFFLPGVHSQVVQVNDSMYGFIGTDVVLHCSFANPLPSVKITQVTWQKSTNGSKQNVAIYNPSMGVSVLAPYRERVEFLRPSFTDGTIRLSRLELEDEGVYICEFATFPTGNRESQLNLTVMAKPTNWIEGTQAVLRAKKGQDDKVLVATCTSANGKPPSVVSWETRLKGEAEYQEIRNPNGTVTVISRYRLVPSREAHQQSLACIVNYHMDRFKESLTLNVQYEPEVTIEGFDGNWYLQRMDVKLTCKADANPPATEYHWTTLNGSLPKGVEAQNRTLFFKGPINYSLAGAYICEATNPIGTRSGQVEVNITEFPYTPSPPEHGRRAGPVPTAIIGGVAGSILLVLIVVGGIVVALRRRRHTFKGDYSTKKHVYGNGYSKAGIPQHHPPMAQNLQYPDDSDDEKKAGPLGGSSYEEEEEEEEGGGGGERKVGGPHPKYDEDAKRPYFTVDEAEARQDGYGDRTLGYQYDPEQLDLAENMVSQNDGSFISKKEWYV | much greater than that precipitated by wild type nectin-1 | substantially reduced | –
Y311A: Y311A point mutant of nectin-1 (protein, listed as Homo sapiens) MARMGLAGAAGRWWGLALGLTAFFLPGVHSQVVQVNDSMYGFIGTDVVLHCSFANPLPSVKITQVTWQKSTNGSKQNVAIYNPSMGVSVLAPYRERVEFLRPSFTDGTIRLSRLELEDEGVYICEFATFPTGNRESQLNLTVMAKPTNWIEGTQAVLRAKKGQDDKVLVATCTSANGKPPSVVSWETRLKGEAEYQEIRNPNGTVTVISRYRLVPSREAHQQSLACIVNYHMDRFKESLTLNVQYEPEVTIEGFDGNWYLQRMDVKLTCKADANPPATEYHWTTLNGSLPKGVEAQNRTLFFKGPINYSLAGTAICEATNPIGTRSGQVEVNITEFPYTPSPPEHGRRAGPVPTAIIGGVAGSILLVLIVVGGIVVALRRRRHTFKGDYSTKKHVYGNGYSKAGIPQHHPPMAQNLQYPDDSDDEKKAGPLGGSSYEEEEEEEEGGGGGERKVGGPHPKYDEDAKRPYFTVDEAEARQDGYGDRTLGYQYDPEQLDLAENMVSQNDGSFISKKEWYV | much greater than that precipitated by wild type nectin-1 | substantially reduced | –
Δ28-333: nectin-1 ectodomain truncation mutant, V5 and flag tagged (protein, left off: small tags and cut ends, nectin-1 ectodomain truncation mutant, V5 and flag tagged) PYTPSPPEHGRRAGPVPTAIIGGVAGSILLVLIVVGGIVVALRRRRHTFKGDYSTKKHVYGNGYSKAGIPQHHPPMAQNLQYPDDSDDEKKAGPLGGSSYEEEEEEEEGGGGGERKVGGPHPKYDEDAKRPYFTVDEAEARQDGYGDRTLGYQYDPEQLDLAENMVSQNDGSFISKKEWYV | – | – | Association with BACE1 was also detected
Δ28-300: nectin-1 ectodomain truncation mutant, V5 and flag tagged (protein, left off: small tags and cut ends, nectin-1 ectodomain truncation mutant, V5 and flag tagged) GPINYSLAGTYICEATNPIGTRSGQVEVNITEFPYTPSPPEHGRRAGPVPTAIIGGVAGSILLVLIVVGGIVVALRRRRHTFKGDYSTKKHVYGNGYSKAGIPQHHPPMAQNLQYPDDSDDEKKAGPLGGSSYEEEEEEEEGGGGGERKVGGPHPKYDEDAKRPYFTVDEAEARQDGYGDRTLGYQYDPEQLDLAENMVSQNDGSFISKKEWYV | – | – | interacted with BACE1 very strongly
Δ28-312: nectin-1 ectodomain truncation mutant, V5 and flag tagged (protein, left off: small tags and cut ends, nectin-1 ectodomain truncation mutant, V5 and flag tagged) CEATNPIGTRSGQVEVNITEFPYTPSPPEHGRRAGPVPTAIIGGVAGSILLVLIVVGGIVVALRRRRHTFKGDYSTKKHVYGNGYSKAGIPQHHPPMAQNLQYPDDSDDEKKAGPLGGSSYEEEEEEEEGGGGGERKVGGPHPKYDEDAKRPYFTVDEAEARQDGYGDRTLGYQYDPEQLDLAENMVSQNDGSFISKKEWYV | – | – | Association with BACE1 was also detected
Δ28-250: nectin-1 ectodomain truncation mutant, V5 and flag tagged (protein, left off: small tags and cut ends, nectin-1 ectodomain truncation mutant, V5 and flag tagged) FDGNWYLQRMDVKLTCKADANPPATEYHWTTLNGSLPKGVEAQNRTLFFKGPINYSLAGTYICEATNPIGTRSGQVEVNITEFPYTPSPPEHGRRAGPVPTAIIGGVAGSILLVLIVVGGIVVALRRRRHTFKGDYSTKKHVYGNGYSKAGIPQHHPPMAQNLQYPDDSDDEKKAGPLGGSSYEEEEEEEEGGGGGERKVGGPHPKYDEDAKRPYFTVDEAEARQDGYGDRTLGYQYDPEQLDLAENMVSQNDGSFISKKEWYV | – | – | interacted with BACE1 very strongly
Δ28-349: nectin-1 ectodomain truncation mutant, V5 and flag tagged (protein, left off: small tags and cut ends, nectin-1 ectodomain truncation mutant, V5 and flag tagged) PTAIIGGVAGSILLVLIVVGGIVVALRRRRHTFKGDYSTKKHVYGNGYSKAGIPQHHPPMAQNLQYPDDSDDEKKAGPLGGSSYEEEEEEEEGGGGGERKVGGPHPKYDEDAKRPYFTVDEAEARQDGYGDRTLGYQYDPEQLDLAENMVSQNDGSFISKKEWYV | – | – | did not associate with BACE1
Δ28-324: nectin-1 ectodomain truncation mutant, V5 and flag tagged (protein, left off: small tags and cut ends, nectin-1 ectodomain truncation mutant, V5 and flag tagged) QVEVNITEFPYTPSPPEHGRRAGPVPTAIIGGVAGSILLVLIVVGGIVVALRRRRHTFKGDYSTKKHVYGNGYSKAGIPQHHPPMAQNLQYPDDSDDEKKAGPLGGSSYEEEEEEEEGGGGGERKVGGPHPKYDEDAKRPYFTVDEAEARQDGYGDRTLGYQYDPEQLDLAENMVSQNDGSFISKKEWYV | – | – | Association with BACE1 was also detected
